One molecule from patent US20190153113A1, “CD39 VASCULAR ISOFORM TARGETING AGENTS” (INNATE PHARMA, priority 2015, published 2019) can be followed below.

For assay [1], the target named is T1, CD39 mutant 15 (K87A, E100A, D107A) (human, UniProt P49961 1-510).
T1 construct: Transfected in HEK293T cells
T1 chain: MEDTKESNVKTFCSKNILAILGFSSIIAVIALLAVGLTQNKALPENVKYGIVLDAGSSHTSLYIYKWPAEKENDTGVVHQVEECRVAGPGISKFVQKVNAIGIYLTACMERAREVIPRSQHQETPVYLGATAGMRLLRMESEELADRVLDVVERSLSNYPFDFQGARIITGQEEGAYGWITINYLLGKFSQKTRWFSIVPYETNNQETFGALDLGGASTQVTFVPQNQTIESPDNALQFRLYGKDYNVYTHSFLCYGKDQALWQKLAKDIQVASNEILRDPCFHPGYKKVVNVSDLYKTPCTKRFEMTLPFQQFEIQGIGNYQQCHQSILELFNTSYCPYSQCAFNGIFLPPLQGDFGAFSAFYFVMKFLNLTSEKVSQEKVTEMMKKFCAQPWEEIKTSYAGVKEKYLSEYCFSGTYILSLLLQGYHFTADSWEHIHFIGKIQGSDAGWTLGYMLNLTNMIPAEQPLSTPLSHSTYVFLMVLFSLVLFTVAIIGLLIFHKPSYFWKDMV
Briefly: flow cytometry, HEK293T cells transfected with mutant 15. (In flow cytometry, cells or beads pass a laser one at a time.)

Assay [2] has as its target T2, CD39 mutant 2A (V81S, E82A, R111A, V115A) (human, UniProt P49961 1-510).
T2 construct: Transfected in HEK293T cells
T2 chain: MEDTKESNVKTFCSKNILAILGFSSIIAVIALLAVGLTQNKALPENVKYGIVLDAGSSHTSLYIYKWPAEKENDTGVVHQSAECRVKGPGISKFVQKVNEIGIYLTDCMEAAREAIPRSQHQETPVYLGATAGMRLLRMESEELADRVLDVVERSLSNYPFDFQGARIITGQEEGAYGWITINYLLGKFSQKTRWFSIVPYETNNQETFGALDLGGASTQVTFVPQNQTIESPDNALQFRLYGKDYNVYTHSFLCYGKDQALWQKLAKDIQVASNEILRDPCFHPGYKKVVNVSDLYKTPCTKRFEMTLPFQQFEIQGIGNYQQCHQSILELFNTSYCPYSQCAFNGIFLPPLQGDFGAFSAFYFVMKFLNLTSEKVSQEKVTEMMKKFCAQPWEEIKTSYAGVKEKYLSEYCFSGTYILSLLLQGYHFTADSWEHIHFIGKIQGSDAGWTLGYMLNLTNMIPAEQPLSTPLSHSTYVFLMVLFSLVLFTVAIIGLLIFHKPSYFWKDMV
Briefly: flow cytometry, HEK293T cells transfected with mutant 2A.

Assay [3] has as its target T3, CD39 mutant 2B (E110A, R113T, E114A) (human, UniProt P49961 1-510).
T3 construct: Transfected in HEK293T cells
T3 chain: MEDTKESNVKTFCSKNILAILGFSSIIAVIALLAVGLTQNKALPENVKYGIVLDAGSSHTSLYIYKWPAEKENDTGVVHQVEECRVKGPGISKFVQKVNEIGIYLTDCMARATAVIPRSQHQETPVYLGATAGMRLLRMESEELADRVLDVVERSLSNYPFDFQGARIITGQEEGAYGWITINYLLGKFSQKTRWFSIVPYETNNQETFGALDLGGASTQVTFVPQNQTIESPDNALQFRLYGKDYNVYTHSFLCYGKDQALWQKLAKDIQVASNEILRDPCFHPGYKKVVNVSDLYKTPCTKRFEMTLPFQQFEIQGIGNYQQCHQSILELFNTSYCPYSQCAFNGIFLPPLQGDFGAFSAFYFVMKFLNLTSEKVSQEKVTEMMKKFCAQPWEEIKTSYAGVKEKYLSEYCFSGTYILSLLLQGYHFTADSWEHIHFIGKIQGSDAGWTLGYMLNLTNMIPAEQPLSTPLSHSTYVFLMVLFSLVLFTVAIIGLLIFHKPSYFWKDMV
Nature of the assay: flow cytometry, HEK293T cells transfected with mutant 2B.

For assay [4], the target named is T4, Human CD39 (vascular CD39, NTPDase1, ENTPD1) expressed at the cell surface (human, UniProt P49961 1-510).
T4 construct: also called huCD39; HEK-huCD39
T4 sequence: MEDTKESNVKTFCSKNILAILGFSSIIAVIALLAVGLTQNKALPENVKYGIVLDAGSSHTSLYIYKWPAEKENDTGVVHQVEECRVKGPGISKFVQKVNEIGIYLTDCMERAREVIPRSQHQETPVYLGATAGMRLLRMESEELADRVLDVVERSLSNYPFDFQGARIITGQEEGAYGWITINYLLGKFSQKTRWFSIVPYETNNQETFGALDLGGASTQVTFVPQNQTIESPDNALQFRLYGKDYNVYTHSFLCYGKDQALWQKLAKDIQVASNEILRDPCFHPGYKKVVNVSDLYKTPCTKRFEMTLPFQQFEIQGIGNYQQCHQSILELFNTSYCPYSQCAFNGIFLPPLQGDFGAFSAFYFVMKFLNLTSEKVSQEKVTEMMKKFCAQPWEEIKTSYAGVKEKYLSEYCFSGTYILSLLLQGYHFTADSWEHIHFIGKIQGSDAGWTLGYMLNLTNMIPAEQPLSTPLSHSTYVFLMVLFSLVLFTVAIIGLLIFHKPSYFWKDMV
Briefly: flow cytometry on HEK cells expressing human CD39, antibody 99 nM to 0.045 nM (FIG. 1 legend says ELISA). The method, then: Briefly, 1×10⁵ HEK-huCD39or cynoCD39 cells were incubated with various concentration of unlabeled anti-CD39 antibody or isotype control (IC) from 99 nM to 0.045 nM, for 30 minutes at 4° C. After washes, cells were incubated with Goat anti-mouse H+L labeled secondary antibody for 30 min at 4° C.

B1: Antibody I-391, Fc silent recombinant chimeric human IgG1 with heavy chain N297Q mutation (antibody, V domains shown)
VH: QIQLVQSGPELKKPGETVKISCKASGYTFRNYGMNWVKQAPGKGLKWMGWINTYTGEPTYADDFKGRFAFSLATSASTAYLQISNLKNEDTATYFCARKAYYGSNYYFDYWGQGTTLTVSS
VL: DIVMTQSHKFMSTSVGDRVSITCKASQDVSTAVAWYQQKPGQSPKLLIYSASYRYTGVPDRFTGSGSGTDFTFTISTVQAEDLAVYYCQQHYTTPPYTFGGGTKLEIKR
In the case of B1, the binding result in assay [1], in assay [2] and in assay [3] was “binds” throughout. In addition, in assay [4], the EC50 (as a rule, the midpoint of the concentration-response curve) turned out to be 14.9 nM.
